Measurements from patent publication US20040228866A1, “Suppressor genes” (Ludwig Institute for Cancer Research, priority 2000, published 2004).

T1: p73α (Homo sapiens, UniProt O15350)
T1 construct: expressed in transfected cells; host or cells: H1299 and Saos-2; part of the results from in vitro translation
T1 sequence (O15350 1-636): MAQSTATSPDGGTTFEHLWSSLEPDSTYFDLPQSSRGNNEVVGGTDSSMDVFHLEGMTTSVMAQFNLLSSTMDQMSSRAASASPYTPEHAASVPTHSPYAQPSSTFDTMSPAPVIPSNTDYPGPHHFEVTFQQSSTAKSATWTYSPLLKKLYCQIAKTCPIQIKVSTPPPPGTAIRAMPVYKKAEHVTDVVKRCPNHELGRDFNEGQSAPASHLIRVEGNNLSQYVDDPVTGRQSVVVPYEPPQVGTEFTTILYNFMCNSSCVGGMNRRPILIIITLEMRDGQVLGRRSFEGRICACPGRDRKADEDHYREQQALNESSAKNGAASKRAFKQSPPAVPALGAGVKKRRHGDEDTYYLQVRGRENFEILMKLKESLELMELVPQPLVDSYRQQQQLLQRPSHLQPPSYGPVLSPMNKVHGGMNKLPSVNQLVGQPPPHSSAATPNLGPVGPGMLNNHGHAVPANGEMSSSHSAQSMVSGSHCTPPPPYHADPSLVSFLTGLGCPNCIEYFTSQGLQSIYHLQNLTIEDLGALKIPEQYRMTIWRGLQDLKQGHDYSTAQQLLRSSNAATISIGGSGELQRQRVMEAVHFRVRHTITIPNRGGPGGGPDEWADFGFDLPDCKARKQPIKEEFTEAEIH

T2: p63γ (Homo sapiens, UniProt Q9H3D4)
T2 construct: expressed in transfected cells; host or cells: Saos-2
T2 sequence (Q9H3D4 1-487 isoform Q9H3D4-5): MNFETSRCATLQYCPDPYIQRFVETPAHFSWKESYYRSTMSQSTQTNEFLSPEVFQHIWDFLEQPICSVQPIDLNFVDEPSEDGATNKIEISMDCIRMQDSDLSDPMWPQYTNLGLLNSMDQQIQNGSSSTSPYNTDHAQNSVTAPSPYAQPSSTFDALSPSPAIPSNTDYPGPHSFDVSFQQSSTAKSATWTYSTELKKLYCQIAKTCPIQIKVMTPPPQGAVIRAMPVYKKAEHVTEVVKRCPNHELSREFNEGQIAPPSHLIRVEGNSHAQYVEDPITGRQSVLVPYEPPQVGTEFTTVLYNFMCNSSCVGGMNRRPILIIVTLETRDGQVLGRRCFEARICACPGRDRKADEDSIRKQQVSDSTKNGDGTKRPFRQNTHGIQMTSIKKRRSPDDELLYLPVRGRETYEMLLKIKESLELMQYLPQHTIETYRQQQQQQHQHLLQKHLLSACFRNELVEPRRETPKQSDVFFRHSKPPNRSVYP


Assays:
p73α [1] = biological target: T1, p73α; experiment: Co-immunoprecipitation with p73α (in vitro translated; transfected H1299 and Saos-2 cells); assay type: binding; conditions: for interaction with p73α in vitro: in vitro translated proteins, FIGS. 12B and 12C; for interaction with p73α in vivo: transfected cells, FIGS. 13B and 13D
Protocol: (§1) V5-tagged ASPP1 and ASPP2 proteins were in vitro translated with cold methionine using the TNT T7 Quick coupled Transcription/Translation System (Promega). Cell lysates were incubated at 30° C. for 1 hour and then immunoprecipitated with anti-V5 antibody on protein G agarose beads.
(§2) The agarose beads were added to the binding reactions and incubated on a rotating wheel at 4° C. for 16 hours. The beads were then washed with PBS. The bound proteins were released in SDS gel sample buffer and analysed by 10% SDS-polyacrylamide gel electrophoresis (PAGE). The gels were wet transferred on to Protran nitrocellulose membrane and the resulting blots were first incubated with primary antibody and subsequently with the appropriate secondary HRP conjugated antibody (Dako). The blot was exposed to hyperfilm following the use of ECL substrate solution (Amersham Life Science).
(§3) Cells were transfected with 1 μg of p63γ or p73α in the presence or absence of 10 μg of ASPP1 or ASPP2. Cell lysate (1 mg) was immunoprecipitated with an antiASPP1 or ASPP2 antibody (see Example 2 and 7). The immunoprecipitates were separated on an SDS gel and the presence of p63 or p73 on the immunoblots detected by mouse monoclonal antibodies 4A4 (Santa Cruz) and ER-15 (Neomarker) to p63 or p73, respectively. The presence of ASPP1 or ASPP2 was detected with antibodies YX.7 and DX5410, respectively.
(§4) In some methods, larger amounts of cell lysate (2 mg) were immunoprecipitated with rabbit antibodies ASPP1.88 or BP77 to ASPP1 and ASPP2, respectively. The expression of ASPP1, ASPP2, p63γ and p73α was detected as described above.

Saos-2 cells = experiment: Apoptosis by flow cytometry (CD20-gated, sub-G1 DNA content) in transfected Saos-2 cells; assay type: cell-based; conditions: for effect on apoptotic function of p53 mutants 181L and 181C: FIG. 6A; for increase in percentage of cells that die of apoptosis with E2F1: co-expression with E2F1, FIG. 4B; for apoptotic function of p63γ and p73α: co-expression, FIG. 15; for apoptosis when expressed alone: no p53 co-expressed; for effect on apoptosis induced by p53H175-L: transcriptionally inactive, mitochondria-targeted mutant p53, FIG. 9A
Protocol: Apoptosis was identified by the expression of the co-transfected cell surface marker CD20, as described in Samuels-Lev et al. (Mol. Cell 8:781-94, 2001, herein incorporated by reference).
The number of apoptotic cells was determined using the methods described in Example 6.
Cells (10^6) were plated 24-48 hours prior to transfection in 10 cm plates. Cells were grown in DMEM supplemented with 10% FCS and transfected with 2 μg of a plasmid expressing CD20 as a transfection marker. Increasing amounts of ASPP1 and ASPP2 were transfected (7.5 μg, 15 μg and 25 μg). 36 hours after the transfection, both attached and floating cells were harvested and analysed using flow cytometry as follows. The transfected cells were gated based on the expression of CD20. The percentage of apoptotic cells was measured by the accumulation of cells with a sub-G1 DNA content derived from at least three individual experiments.
The transfected cells were analyzed by flow cytometry as described in Example 6.

p63γ = biological target: T2, p63γ; experiment: Co-immunoprecipitation with p63γ (in vitro translated; transfected H1299 and Saos-2 cells); assay type: binding; conditions: for interaction with p63γ in vitro: in vitro translated proteins, FIGS. 12B and 12C; for interaction with p63γ in vivo: transfected cells, FIGS. 13A and 13C
Protocol: as §1, §2, §3, §4

p73α [2] = biological target: T1, p73α; experiment: Transient luciferase reporter assay of p73α transactivation function; assay type: cell-based; conditions: for stimulation of the transactivation function of p73α on the Bax promoter: Example 16, FIGS. 14A and 14B; for transactivation function of p73α on the mdm2 promoter: FIG. 14C
Protocol: To determine the amount of protein expression, Saos-2 cells (5×10^5) were plated 24 hours prior to transfection in 6 cm dishes. […] To determine the amount of gene activation, after transfection, the cells were lysed in Reporter Lysis Buffer 16-24 hours post-wash and assayed using the Luciferase Assay kit (Promega, Wis.). The fold activation of a particular reporter was determined by the activity of the transfected plasmid above the activity of vector alone.
The expression level of transfected proteins was detected using 40 μg of the respective lysates using the antibodies V5, DX.5410, DO1, 4A4 and p73. […] Results were derived from at least three independent experiments.

p53 = biological target: T3, p53 (Homo sapiens, UniProt P04637); experiment: Co-immunoprecipitation with p53 in transfected Saos-2 cells; assay type: binding
T3 construct: expressed in transfected cells
Protocol: The cells were lysed in NP40 lysis buffer and 1000 μg of lysate immunoprecipitated with antibodies to iASPP bound to Protein G beads.

T3 sequence (P04637 whole entry): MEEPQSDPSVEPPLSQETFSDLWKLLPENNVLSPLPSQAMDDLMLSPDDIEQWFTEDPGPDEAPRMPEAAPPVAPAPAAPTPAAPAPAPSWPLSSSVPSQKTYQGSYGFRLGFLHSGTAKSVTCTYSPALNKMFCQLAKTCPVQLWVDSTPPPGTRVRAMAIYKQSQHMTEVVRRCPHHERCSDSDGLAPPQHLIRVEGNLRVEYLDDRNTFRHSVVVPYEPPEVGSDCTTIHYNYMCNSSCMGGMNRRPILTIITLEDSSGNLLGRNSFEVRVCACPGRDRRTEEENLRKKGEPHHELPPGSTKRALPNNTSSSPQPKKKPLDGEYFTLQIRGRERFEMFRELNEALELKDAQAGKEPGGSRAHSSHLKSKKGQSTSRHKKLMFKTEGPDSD

Row | Molecule | interaction with p73α in vitro (p73α [1]) | interaction with p73α in vivo (p73α [1]) | effect on apoptotic function of p53 mutants 181L and 181C (Saos-2 cells) | transfected cells that die of apoptosis (Saos-2 cells; co-expressed with p53, Example 6, FIGS. 4A and 4C) | increase in percentage of cells that die of apoptosis with E2F1 (Saos-2 cells) | apoptotic function of p63γ and p73α (Saos-2 cells) | apoptosis when expressed alone (Saos-2 cells) | effect on apoptosis induced by p53H175-L (Saos-2 cells) | interaction with p63γ in vitro (p63γ) | interaction with p63γ in vivo (p63γ) | stimulation of the transactivation function of p73α on the Bax promoter (p73α [2]) [fold] | transactivation function of p73α on the mdm2 promoter (p73α [2]) | interaction with p53 by immunoprecipitation and western blot (p53) | percentage of apoptotic cells, co-expressed with p53 (Saos-2 cells; Example 11, p53 alone […]%) [%]
1 | ASPP1: Apoptosis Stimulating Protein 1, protein of SEQ ID NO: 2, expressed from a transfected plasmid (protein, listed as Homo sapiens) MMPMILTVFLSNNEQILTEVPITPETTCRDVVEFCKEPGEGSCHLAEVWRGNERPIPFDHMMYEHLQIWGPRREEVKFFLRHEDSPTENSEQGGRQTQEQRTQRNVINVPGDKRTEYGVGNPRVELTLSELQDMAARQQQQIENQQQMLVAKEQRLHFLKQQERRQQQSISENEKLQKLKERVEAQENKLKKIRAMRGQVDYSKIMNGNLSAEIERFSAMFQEKKQEVQTAILRVDQLSQQLEDLKKGKLNGFQSYNGKLTGPAAVELKRLYQELQIRNQLNQEQNSKLQQQKELLNKRNMEVAMMDKRISELRERLYGKKIQLNRVNGTSSPQSPLSTSGRVAAVGPYIQVPSAGSFPVLGDPIKPQSLSIASNAAHGRSKSANDGNWPTLKQNSSSSVKPVQVAGADWKDPSVEGSVKQGTVSSQPVPFSALGPTEKPGIEIGKVPPPIPGVGKQLPPSYGTYPSPTPLGPGSTSSLERRKEGSLPRPSAGLPSRQRPTLLPATGSTPQPGSSQQIQQRISVPPSPTYPPAGPPAFPAGDSKPELPLTVAIRPFLADKGSRPQSPRKGPQTVNSSSIYSMYLQQATPPKNYQPAAHSALNKSVKAVYGKPVLPSGSTSPSPLPFLHGSLSTGTPQPQPPSESTEKEPEQDGPAAPADGSTVESLPRPLSPTKLTPIVHSPLRYQSDADLEALRRKLANAPRPLKKRSSITEPEGPGGPNIQKLLYQRFNTLAGGMEGTPFYQPSPSQDFMGTLADVDNGNTNANGNLEELPPAQPTAPLPAEPAPSSDANDNELPSPEPEELICPQTTHQTAEPAEDNNNNVATVPTTEQIPSPVAEAPSPGEEQVPPAPLPPASHPPATSTNKRTNLKKPNSERTGHGLRVRFNPLALLLDASLEGEFDLVQRIIYEVEDPSKPNDEGITPLHNAVCAGHHHIVKFLLDFGVNVNAADSDGWTPLHCAASCNSVHLCKQLVESGAAIFASTISDIETAADKCEEMEEGYIQCSQFLYGVQEKLGVMNKGVAYALWDYEAQNSDELSFHEGDALTILRRKDESETEWWWARLGDREGYVPKNLLGLYPRIKPRQRTLA | co-immunoprecipitated | co-immunoprecipitated transfected p63γ and p73α | failed to enhance the apoptotic function of either p53 mutant | Approximately 50% | only an additive increase | enhanced the apoptotic function of p63γ and p73α | lower level of apoptosis | failed to enhance the apoptotic function of p53H175-L | co-immunoprecipitated | co-immunoprecipitated transfected p63γ and p73α | 3 | failed to stimulate | – | –
2 | ASPP2: full length 1128 amino acid protein, SEQ ID NO: 4 (protein, listed as Homo sapiens) MMPMFLTVYLSNNEQHFTEVPVTPETICRDVVDLCKEPGESDCHLAEVWCGSERPVADNERMFDVLQRFGSQRNEVRFFLRHERPPGRDIVSGPRSQDPSLKRNGVKVPGEYRRKENGVNSPRMDLTLAELQEMASRQQQQIEAQQQLLATKEQRLKFLKQQDQRQQQQVAEQEKLKRLKEIAENQEAKLKKVRALKGHVEQKRLSNGKLVEEIEQMNNLFQQKQRELVLAVSKVEELTRQLEMLKNGRIDSHHDNQSAVAELDRLYKELQLRNKLNQEQNAKLQQQRECLNKRNSEVAVMDKRVNELRDRLWKKKAALQQKENLPVSSDGNLPQQAASAPSRVAAVGPYIQSSTMPRMPSRPELLVKPALPDGSLVIQASEGPMKIQTLPNMRSGAASQTKGSKIHPVGPDWSPSNADLFPSQGSASVPQSTGNALDQVDDGEVPLREKEKKVRPFSMFDAVDQSNAPPSFGTLRKNQSSEDILRDAQVANKNVAKVPPPVPTKPKQINLPYFGQTNQPPSDIKPDGSSQQLSTVVPSMGTKPKPAGQQPRVLLSPSIPSVGQDQTLSPGSKQESPPAAAVRPFTPQPSKDTLLPPFRKPQTVAASSIYSMYTQQQAPGKNFQQAVQSALTKTHTRGPHFSSVYGKPVIAAAQNQQQHPENIYSNSQGKPGSPEPETEPVSSVQENHENERIPRPLSPTKLLPFLSNPYRNQSDADLEALRKKLSNAPRPLKKRSSITEPEGPNGPNIQKLLYQRTTIAAMETISVPSYPSKSASVTASSESPVEIQNPYLHVEPEKEVVSLVPESLSPEDVGNASTENSDMPAPSPGLDYEPEGVPDNSPNLQNNPEEPNPEAPHVLDVYLEEYPPYPPPPYPSGEPEGPGEDSVSMRPPEITGQVSLPPGKRTNLRKTGSERIAHGMRVKFNPLALLLDSSLEGEFDLVQRIIYEVDDPSLPNDEGITALHNAVCAGHTEIVKFLVQFGVNVNAADSDGWTPLHCAASCNNVQVCKFLVESGAAVFAMTYSDMQTAADKCEEMEEGYTQCSQFLYGVQEKMGIMNKGVIYALWDYEPQNDDELPMKEGDCMTIIHREDEDEIEWWWARLNDKEGYVPRNLLGLYPRIKPRQRSLA | co-immunoprecipitated | co-immunoprecipitated transfected p63γ and p73α | failed to enhance the apoptotic function of either p53 mutant | – | only an additive increase | enhanced the apoptotic function of p63γ and p73α | lower level of apoptosis | failed to enhance the apoptotic function of p53H175-L | co-immunoprecipitated | co-immunoprecipitated transfected p63γ and p73α | 6 | failed to stimulate | interact in vivo | 30
